How the values were obtained:
Experiment in all cases: cell-based or functional assay
[1] = target: T1, factor VIIIa A1/A3C1C2 dimer, E113A and E1984V (human, UniProt P00451 20-391; P00451 1709-2351)
T1 chain 1: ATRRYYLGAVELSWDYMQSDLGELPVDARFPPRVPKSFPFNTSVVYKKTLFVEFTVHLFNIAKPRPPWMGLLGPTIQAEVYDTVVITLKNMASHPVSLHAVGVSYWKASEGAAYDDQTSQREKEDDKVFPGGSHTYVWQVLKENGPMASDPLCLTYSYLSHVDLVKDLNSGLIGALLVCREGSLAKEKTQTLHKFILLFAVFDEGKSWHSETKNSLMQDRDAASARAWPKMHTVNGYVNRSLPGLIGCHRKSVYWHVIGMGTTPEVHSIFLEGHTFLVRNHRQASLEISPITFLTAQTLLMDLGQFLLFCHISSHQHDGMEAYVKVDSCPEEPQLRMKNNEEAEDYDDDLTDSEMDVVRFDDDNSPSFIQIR
T1 chain 2: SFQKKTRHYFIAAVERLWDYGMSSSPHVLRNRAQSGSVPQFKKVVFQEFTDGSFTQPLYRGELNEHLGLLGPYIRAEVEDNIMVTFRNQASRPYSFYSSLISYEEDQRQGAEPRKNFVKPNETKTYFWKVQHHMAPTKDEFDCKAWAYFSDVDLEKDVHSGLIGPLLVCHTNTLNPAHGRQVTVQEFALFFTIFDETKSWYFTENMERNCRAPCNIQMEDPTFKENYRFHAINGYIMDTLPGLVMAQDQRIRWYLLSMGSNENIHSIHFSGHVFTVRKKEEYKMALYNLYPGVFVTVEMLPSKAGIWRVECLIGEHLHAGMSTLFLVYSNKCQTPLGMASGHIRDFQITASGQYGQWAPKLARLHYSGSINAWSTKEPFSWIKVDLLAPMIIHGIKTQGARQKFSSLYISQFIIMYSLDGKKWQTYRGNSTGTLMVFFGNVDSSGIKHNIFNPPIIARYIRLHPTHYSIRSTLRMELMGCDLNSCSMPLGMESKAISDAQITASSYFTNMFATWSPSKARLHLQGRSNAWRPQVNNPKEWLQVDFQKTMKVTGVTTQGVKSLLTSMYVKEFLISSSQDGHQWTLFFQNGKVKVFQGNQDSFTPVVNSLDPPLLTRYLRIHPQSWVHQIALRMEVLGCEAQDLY

[2] = target: T2, factor VIIIa A1/A3C1C2 dimer, Glu1984Ala (human, UniProt P00451 20-391; P00451 1709-2351)
T2 sequence 1: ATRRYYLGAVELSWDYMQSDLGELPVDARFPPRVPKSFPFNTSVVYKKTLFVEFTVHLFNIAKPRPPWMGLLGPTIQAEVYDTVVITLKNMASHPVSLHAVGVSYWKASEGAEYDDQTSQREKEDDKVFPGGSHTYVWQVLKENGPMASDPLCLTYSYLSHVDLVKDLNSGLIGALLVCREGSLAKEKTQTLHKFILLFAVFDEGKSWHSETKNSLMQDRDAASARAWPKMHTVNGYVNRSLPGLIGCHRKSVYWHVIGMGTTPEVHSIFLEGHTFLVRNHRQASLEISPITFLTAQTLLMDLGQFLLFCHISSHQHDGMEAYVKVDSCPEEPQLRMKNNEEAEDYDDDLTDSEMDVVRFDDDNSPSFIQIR
T2 sequence 2: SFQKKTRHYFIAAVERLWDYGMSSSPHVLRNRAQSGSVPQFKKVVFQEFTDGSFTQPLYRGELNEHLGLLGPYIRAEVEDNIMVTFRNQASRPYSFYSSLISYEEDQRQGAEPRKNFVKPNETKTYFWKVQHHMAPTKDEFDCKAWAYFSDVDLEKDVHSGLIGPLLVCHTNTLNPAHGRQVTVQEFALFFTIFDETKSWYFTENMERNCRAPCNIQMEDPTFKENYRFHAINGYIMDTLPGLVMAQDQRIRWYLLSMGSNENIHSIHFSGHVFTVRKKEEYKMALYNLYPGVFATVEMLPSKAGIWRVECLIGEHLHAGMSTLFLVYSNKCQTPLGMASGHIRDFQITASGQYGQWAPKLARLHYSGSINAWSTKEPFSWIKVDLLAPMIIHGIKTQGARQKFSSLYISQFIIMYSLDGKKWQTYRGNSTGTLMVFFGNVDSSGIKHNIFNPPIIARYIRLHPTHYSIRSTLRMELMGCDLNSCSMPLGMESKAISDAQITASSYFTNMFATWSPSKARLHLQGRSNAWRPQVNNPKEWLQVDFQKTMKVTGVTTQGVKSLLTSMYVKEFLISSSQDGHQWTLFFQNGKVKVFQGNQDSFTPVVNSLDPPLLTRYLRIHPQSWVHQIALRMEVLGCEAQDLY

[3] = target: T3, factor VIIIa A1/A3C1C2 dimer, wild type (human, UniProt P00451 20-391; P00451 1709-2351)
T3 sequence 1: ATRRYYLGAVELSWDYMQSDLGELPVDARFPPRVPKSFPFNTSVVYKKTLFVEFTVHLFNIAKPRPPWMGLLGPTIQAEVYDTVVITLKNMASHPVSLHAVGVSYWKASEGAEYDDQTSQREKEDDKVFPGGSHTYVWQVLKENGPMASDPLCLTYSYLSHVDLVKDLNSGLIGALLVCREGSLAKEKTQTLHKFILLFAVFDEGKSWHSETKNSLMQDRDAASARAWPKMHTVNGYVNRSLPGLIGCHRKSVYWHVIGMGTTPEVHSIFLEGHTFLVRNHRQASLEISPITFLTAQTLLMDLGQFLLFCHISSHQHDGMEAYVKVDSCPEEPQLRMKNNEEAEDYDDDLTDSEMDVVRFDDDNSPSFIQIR
T3 sequence 2: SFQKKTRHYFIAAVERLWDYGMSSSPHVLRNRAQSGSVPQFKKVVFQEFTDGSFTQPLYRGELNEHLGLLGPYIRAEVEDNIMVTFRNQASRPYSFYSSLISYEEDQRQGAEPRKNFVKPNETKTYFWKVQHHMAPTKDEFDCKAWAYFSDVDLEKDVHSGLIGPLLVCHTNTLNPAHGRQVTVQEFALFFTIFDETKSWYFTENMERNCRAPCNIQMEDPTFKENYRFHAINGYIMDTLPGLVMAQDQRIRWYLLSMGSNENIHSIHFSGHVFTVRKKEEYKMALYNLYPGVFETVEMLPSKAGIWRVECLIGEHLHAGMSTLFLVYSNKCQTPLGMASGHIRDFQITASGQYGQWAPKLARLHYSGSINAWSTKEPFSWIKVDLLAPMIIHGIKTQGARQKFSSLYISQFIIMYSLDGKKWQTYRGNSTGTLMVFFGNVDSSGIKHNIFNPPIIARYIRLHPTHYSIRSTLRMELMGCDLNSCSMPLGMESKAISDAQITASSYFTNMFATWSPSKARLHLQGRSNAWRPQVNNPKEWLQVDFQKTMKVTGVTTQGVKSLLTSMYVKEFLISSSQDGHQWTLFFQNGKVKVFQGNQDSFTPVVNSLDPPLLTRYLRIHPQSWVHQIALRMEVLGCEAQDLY

[4] = target: T4, factor VIIIa A1/A3C1C2 dimer, Glu1984Val (human, UniProt P00451 20-391; P00451 1709-2351)
T4 sequence 1: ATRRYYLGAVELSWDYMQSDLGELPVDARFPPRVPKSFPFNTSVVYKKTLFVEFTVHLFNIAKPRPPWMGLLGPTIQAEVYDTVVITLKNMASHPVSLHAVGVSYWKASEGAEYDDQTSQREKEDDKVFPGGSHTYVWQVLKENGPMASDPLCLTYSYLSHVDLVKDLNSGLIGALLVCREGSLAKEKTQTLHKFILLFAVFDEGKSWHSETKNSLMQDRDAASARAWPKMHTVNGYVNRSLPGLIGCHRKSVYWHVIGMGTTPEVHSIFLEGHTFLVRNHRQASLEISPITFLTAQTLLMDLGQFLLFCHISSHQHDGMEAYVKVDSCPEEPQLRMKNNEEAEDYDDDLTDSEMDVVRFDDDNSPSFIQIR
T4 sequence 2: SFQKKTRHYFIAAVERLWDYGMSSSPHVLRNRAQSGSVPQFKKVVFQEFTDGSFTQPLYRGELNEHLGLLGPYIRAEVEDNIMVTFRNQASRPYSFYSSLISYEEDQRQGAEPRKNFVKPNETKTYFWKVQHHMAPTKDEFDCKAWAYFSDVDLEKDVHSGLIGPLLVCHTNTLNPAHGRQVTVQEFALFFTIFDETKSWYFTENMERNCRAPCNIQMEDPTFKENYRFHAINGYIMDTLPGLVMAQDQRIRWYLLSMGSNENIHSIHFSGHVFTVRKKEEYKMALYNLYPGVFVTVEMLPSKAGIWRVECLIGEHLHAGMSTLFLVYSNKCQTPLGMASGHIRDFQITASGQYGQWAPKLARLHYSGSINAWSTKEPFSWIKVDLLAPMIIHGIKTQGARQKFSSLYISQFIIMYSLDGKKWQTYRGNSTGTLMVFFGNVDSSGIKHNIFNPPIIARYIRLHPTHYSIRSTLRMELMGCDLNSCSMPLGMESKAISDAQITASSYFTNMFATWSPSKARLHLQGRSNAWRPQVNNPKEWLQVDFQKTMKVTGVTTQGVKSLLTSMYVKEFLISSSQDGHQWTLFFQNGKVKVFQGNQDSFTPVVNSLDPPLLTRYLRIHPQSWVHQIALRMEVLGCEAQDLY

B1: factor VIIIa A2 subunit, wild type (other)
chain: SVAKKHPKTWVHYIAAEEEDWDYAPLVLAPDDRSYKSQYLNNGPQRIGRKYKKVRFMAYTDETFKTREAIQHESGILGPLLYGEVGDTLLIIFKNQASRPYNIYPHGITDVRPLYSRRLPKGVKHLKDFPILPGEIFKYKWTVTVEDGPTKSDPRCLTRYYSSFVNMERDLASGLIGPLLICYKESVDQRGNQIMSDKRNVILFSVFDENRSWYLTENIQRFLPNPAGVQLEDPEFQASNIMHSINGYVFDSLQLSVCLHEVAYWYILSIGAQTDFLSVFFSGYTFKHKMVYEDTLTLFPFSGETVFMSMENPGLWILGCHNSDFRNRGMTALLKVSSCDKNTGDYYEDSYEDISAYLLSKNNAIEPR
What does the source list for B1?
Decay rate relative to wild type, Factor VIIIa (1.5 nM, factor IXa absent) [1]: 0.4 relative to wild type; Decay rate, Factor VIIIa (1.5 nM factor VIIIa, factor IXa absent) [1]: 0.0567 min⁻¹; Decay rate relative to wild type, Factor VIIIa (1.5 nM, factor IXa absent) [2]: 0.41 relative to wild type; Decay rate, Factor VIIIa (1.5 nM factor VIIIa, factor IXa absent) [2]: 0.0574 min⁻¹; Decay rate relative to wild type, Factor VIIIa (1.5 nM, factor IXa absent) [3]: 1 relative to wild type; Decay rate, Factor VIIIa (1.5 nM factor VIIIa, factor IXa absent) [3]: 0.14 min⁻¹; Decay rate relative to wild type, Factor VIIIa (1.5 nM, factor IXa absent) [4]: 0.34 relative to wild type; Decay rate, Factor VIIIa (1.5 nM factor VIIIa, factor IXa absent) [4]: 0.0471 min⁻¹

— patent publication US20090118184A1 (UNIVERSITY OF ROCHESTER, published 2009)
